{"source": "the Human Domainome abundance scans (Beltran et al. 2025)", "parents": {"B1": {"name": "Histone H1t, residues 44 to 112; numbered along this chain, P22492 (parent)", "chain": "VSKLITEALSVSQERVGMSLVALKKALAAAGYDVEKNNSRIKLSLKSLVNKGILVQTRGTGASGSFKLS"}}, "note": "± gives the uncertainty stated by the source."}
{"variants_of": "B1", "experiment": "abundance fitness (aPCA) (normalised: wild type 0, dead -1); higher = more abundant; growth selection in yeast, the domain comes from the species named", "conditions": "Homo sapiens"}
{"variant": "VSKLITEALSVSQMRVGMSLVALKKALAAAGYDVEKNNSRIKLSLKSLVNKGILVQTRGTGASGSFKLS", "abundance fitness": "-0.649 ± 0.051"}
{"variant": "VSKLITEALSVSQVRVGMSLVALKKALAAAGYDVEKNNSRIKLSLKSLVNKGILVQTRGTGASGSFKLS", "abundance fitness": "-0.651 ± 0.13"}
{"variant": "VSKLITEALSVSQHRVGMSLVALKKALAAAGYDVEKNNSRIKLSLKSLVNKGILVQTRGTGASGSFKLS", "abundance fitness": "-0.373 ± 0.087"}
{"variant": "VSKLITEALSVSQSRVGMSLVALKKALAAAGYDVEKNNSRIKLSLKSLVNKGILVQTRGTGASGSFKLS", "abundance fitness": "-0.274 ± 0.05"}
{"variant": "VSKLITEALSVSQTRVGMSLVALKKALAAAGYDVEKNNSRIKLSLKSLVNKGILVQTRGTGASGSFKLS", "abundance fitness": "-0.4 ± 0.071"}
{"variant": "VSKLITEALSVSQLRVGMSLVALKKALAAAGYDVEKNNSRIKLSLKSLVNKGILVQTRGTGASGSFKLS", "abundance fitness": "-0.71 ± 0.033"}
{"variant": "VSKLITEALSVSQRRVGMSLVALKKALAAAGYDVEKNNSRIKLSLKSLVNKGILVQTRGTGASGSFKLS", "abundance fitness": "-0.61 ± 0.23"}
{"variant": "VSKLITEALSVSQKRVGMSLVALKKALAAAGYDVEKNNSRIKLSLKSLVNKGILVQTRGTGASGSFKLS", "abundance fitness": "-0.449 ± 0.083"}
{"variant": "VSKLITEALSVSQDRVGMSLVALKKALAAAGYDVEKNNSRIKLSLKSLVNKGILVQTRGTGASGSFKLS", "abundance fitness": "-0.271 ± 0.36"}
{"variant": "VSKLITEALSVSQERVAMSLVALKKALAAAGYDVEKNNSRIKLSLKSLVNKGILVQTRGTGASGSFKLS", "abundance fitness": "-0.07 ± 0.089"}
{"variant": "VSKLITEALSVSQERVIMSLVALKKALAAAGYDVEKNNSRIKLSLKSLVNKGILVQTRGTGASGSFKLS", "abundance fitness": "-0.254 ± 0.047"}
{"variant": "VSKLITEALSVSQERVSMSLVALKKALAAAGYDVEKNNSRIKLSLKSLVNKGILVQTRGTGASGSFKLS", "abundance fitness": "-0.24 ± 0.043"}
{"variant": "VSKLITEALSVSQERVFMSLVALKKALAAAGYDVEKNNSRIKLSLKSLVNKGILVQTRGTGASGSFKLS", "abundance fitness": "-0.465 ± 0.041"}
{"variant": "VSKLITEALSVSQERVWMSLVALKKALAAAGYDVEKNNSRIKLSLKSLVNKGILVQTRGTGASGSFKLS", "abundance fitness": "-0.49 ± 0.095"}
{"variant": "VSKLITEALSVSQERVTMSLVALKKALAAAGYDVEKNNSRIKLSLKSLVNKGILVQTRGTGASGSFKLS", "abundance fitness": "-0.134 ± 0.054"}
{"variant": "VSKLITEALSVSQERVVMSLVALKKALAAAGYDVEKNNSRIKLSLKSLVNKGILVQTRGTGASGSFKLS", "abundance fitness": "-0.1 ± 0.053"}
{"variant": "VSKLITEALSVSQERVRMSLVALKKALAAAGYDVEKNNSRIKLSLKSLVNKGILVQTRGTGASGSFKLS", "abundance fitness": "-0.025 ± 0.056"}
{"variant": "VSKLITEALSVSQERVCMSLVALKKALAAAGYDVEKNNSRIKLSLKSLVNKGILVQTRGTGASGSFKLS", "abundance fitness": "-0.17 ± 0.062"}
{"variant": "VSKLITEALSVSQERVKMSLVALKKALAAAGYDVEKNNSRIKLSLKSLVNKGILVQTRGTGASGSFKLS", "abundance fitness": "0.157 ± 0.046"}
{"variant": "VSKLITEALSVSQERVLMSLVALKKALAAAGYDVEKNNSRIKLSLKSLVNKGILVQTRGTGASGSFKLS", "abundance fitness": "-0.478 ± 0.036"}
{"variant": "VSKLITEALSVSQERVPMSLVALKKALAAAGYDVEKNNSRIKLSLKSLVNKGILVQTRGTGASGSFKLS", "abundance fitness": "-0.484 ± 0.087"}
{"variant": "VSKLITEALSVSQERVDMSLVALKKALAAAGYDVEKNNSRIKLSLKSLVNKGILVQTRGTGASGSFKLS", "abundance fitness": "-0.398 ± 0.12"}
{"variant": "VSKLITEALSVSQERVHMSLVALKKALAAAGYDVEKNNSRIKLSLKSLVNKGILVQTRGTGASGSFKLS", "abundance fitness": "-0.116 ± 0.066"}
{"variant": "VSKLITEALSVSQERVNMSLVALKKALAAAGYDVEKNNSRIKLSLKSLVNKGILVQTRGTGASGSFKLS", "abundance fitness": "0.015 ± 0.057"}
{"variant": "VSKLITEALSVSQERVQMSLVALKKALAAAGYDVEKNNSRIKLSLKSLVNKGILVQTRGTGASGSFKLS", "abundance fitness": "-0.075 ± 0.059"}
{"variant": "VSKLITEALSVSQERVYMSLVALKKALAAAGYDVEKNNSRIKLSLKSLVNKGILVQTRGTGASGSFKLS", "abundance fitness": "-0.4 ± 0.05"}
{"variant": "VSKLITEALSVSQERVMMSLVALKKALAAAGYDVEKNNSRIKLSLKSLVNKGILVQTRGTGASGSFKLS", "abundance fitness": "-0.296 ± 0.048"}
{"variant": "VSKLITEALSVSQERYGMSLVALKKALAAAGYDVEKNNSRIKLSLKSLVNKGILVQTRGTGASGSFKLS", "abundance fitness": "-0.045 ± 0.033"}
{"variant": "VSKLITEALSVSQERMGMSLVALKKALAAAGYDVEKNNSRIKLSLKSLVNKGILVQTRGTGASGSFKLS", "abundance fitness": "-0.076 ± 0.031"}
{"variant": "VSKLITEALSVSQERHGMSLVALKKALAAAGYDVEKNNSRIKLSLKSLVNKGILVQTRGTGASGSFKLS", "abundance fitness": "-0.031 ± 0.051"}
{"variant": "VSKLITEALSVSQERKGMSLVALKKALAAAGYDVEKNNSRIKLSLKSLVNKGILVQTRGTGASGSFKLS", "abundance fitness": "-0.16 ± 0.033"}
{"variant": "VSKLITEALSVSQERFGMSLVALKKALAAAGYDVEKNNSRIKLSLKSLVNKGILVQTRGTGASGSFKLS", "abundance fitness": "-0.224 ± 0.03"}
{"variant": "VSKLITEALSVSQERDGMSLVALKKALAAAGYDVEKNNSRIKLSLKSLVNKGILVQTRGTGASGSFKLS", "abundance fitness": "0.347 ± 0.19"}
{"variant": "VSKLITEALSVSQERRGMSLVALKKALAAAGYDVEKNNSRIKLSLKSLVNKGILVQTRGTGASGSFKLS", "abundance fitness": "-0.718 ± 0.39"}
{"variant": "VSKLITEALSVSQERPGMSLVALKKALAAAGYDVEKNNSRIKLSLKSLVNKGILVQTRGTGASGSFKLS", "abundance fitness": "-0.416 ± 0.059"}
{"variant": "VSKLITEALSVSQERTGMSLVALKKALAAAGYDVEKNNSRIKLSLKSLVNKGILVQTRGTGASGSFKLS", "abundance fitness": "-0.024 ± 0.052"}
{"variant": "VSKLITEALSVSQERNGMSLVALKKALAAAGYDVEKNNSRIKLSLKSLVNKGILVQTRGTGASGSFKLS", "abundance fitness": "0.042 ± 0.034"}
{"variant": "VSKLITEALSVSQERIGMSLVALKKALAAAGYDVEKNNSRIKLSLKSLVNKGILVQTRGTGASGSFKLS", "abundance fitness": "-0.058 ± 0.033"}
{"variant": "VSKLITEALSVSQERAGMSLVALKKALAAAGYDVEKNNSRIKLSLKSLVNKGILVQTRGTGASGSFKLS", "abundance fitness": "0.037 ± 0.23"}
